According to ChEMBL document CHEMBL2074186:

Substrate: Nc1ccc(C(=O)NCC(=O)O)cc1
Experiment: cells, lysate or membranes named

B1: Solute carrier family 22 member 6 (Rattus norvegicus) (protein)
chain: MAFNDLLKQVGGVGRFQLIQVTMVVAPLLLMASHNTLQNFTAAIPPHHCRPPANANLSKDGGLEAWLPLDKQGQPESCLRFTSPQWGPPFYNGTEANGTRVTEPCIDGWVYDNSTFPSTIVTEWNLVCSHRAFRQLAQSLYMVGVLLGAMVFGYLADRLGRRKVLILNYLQTAVSGTCAAYAPNYTVYCVFRLLSGMSLASIAINCMTLNVEWMPIHTRAYVGTLIGYVYSLGQFLLAGIAYAVPHWRHLQLVVSVPFFIAFIYSWFFIESARWYSSSGRLDLTLRALQRVARINGKQEEGAKLSIEVLRTSLQKELTLSKGQASAMELLRCPTLRHLFLCLSMLWFATSFAYYGLVMDLQGFGVSMYLIQVIFGAVDLPAKFVCFLVINSMGRRPAQMASLLLAGICILVNGIIPKSHTIIRTSLAVLGKGCLASSFNCIFLYTGELYPTVIRQTGLGMGSTMARVGSIVSPLVSMTAEFYPSMPLFIFGAVPVVASAVTALLPETLGQPLPDTVQDLKSRSRGKQNQQQQEQQKQMMPLQASTQEKNGL
Km: 43.2 µM
